Test results taken from IntAct's records for PubMed 23727230.

Target: prp8_yeast PRP8 (UniProt P33334)
Sequence (P33334 whole entry): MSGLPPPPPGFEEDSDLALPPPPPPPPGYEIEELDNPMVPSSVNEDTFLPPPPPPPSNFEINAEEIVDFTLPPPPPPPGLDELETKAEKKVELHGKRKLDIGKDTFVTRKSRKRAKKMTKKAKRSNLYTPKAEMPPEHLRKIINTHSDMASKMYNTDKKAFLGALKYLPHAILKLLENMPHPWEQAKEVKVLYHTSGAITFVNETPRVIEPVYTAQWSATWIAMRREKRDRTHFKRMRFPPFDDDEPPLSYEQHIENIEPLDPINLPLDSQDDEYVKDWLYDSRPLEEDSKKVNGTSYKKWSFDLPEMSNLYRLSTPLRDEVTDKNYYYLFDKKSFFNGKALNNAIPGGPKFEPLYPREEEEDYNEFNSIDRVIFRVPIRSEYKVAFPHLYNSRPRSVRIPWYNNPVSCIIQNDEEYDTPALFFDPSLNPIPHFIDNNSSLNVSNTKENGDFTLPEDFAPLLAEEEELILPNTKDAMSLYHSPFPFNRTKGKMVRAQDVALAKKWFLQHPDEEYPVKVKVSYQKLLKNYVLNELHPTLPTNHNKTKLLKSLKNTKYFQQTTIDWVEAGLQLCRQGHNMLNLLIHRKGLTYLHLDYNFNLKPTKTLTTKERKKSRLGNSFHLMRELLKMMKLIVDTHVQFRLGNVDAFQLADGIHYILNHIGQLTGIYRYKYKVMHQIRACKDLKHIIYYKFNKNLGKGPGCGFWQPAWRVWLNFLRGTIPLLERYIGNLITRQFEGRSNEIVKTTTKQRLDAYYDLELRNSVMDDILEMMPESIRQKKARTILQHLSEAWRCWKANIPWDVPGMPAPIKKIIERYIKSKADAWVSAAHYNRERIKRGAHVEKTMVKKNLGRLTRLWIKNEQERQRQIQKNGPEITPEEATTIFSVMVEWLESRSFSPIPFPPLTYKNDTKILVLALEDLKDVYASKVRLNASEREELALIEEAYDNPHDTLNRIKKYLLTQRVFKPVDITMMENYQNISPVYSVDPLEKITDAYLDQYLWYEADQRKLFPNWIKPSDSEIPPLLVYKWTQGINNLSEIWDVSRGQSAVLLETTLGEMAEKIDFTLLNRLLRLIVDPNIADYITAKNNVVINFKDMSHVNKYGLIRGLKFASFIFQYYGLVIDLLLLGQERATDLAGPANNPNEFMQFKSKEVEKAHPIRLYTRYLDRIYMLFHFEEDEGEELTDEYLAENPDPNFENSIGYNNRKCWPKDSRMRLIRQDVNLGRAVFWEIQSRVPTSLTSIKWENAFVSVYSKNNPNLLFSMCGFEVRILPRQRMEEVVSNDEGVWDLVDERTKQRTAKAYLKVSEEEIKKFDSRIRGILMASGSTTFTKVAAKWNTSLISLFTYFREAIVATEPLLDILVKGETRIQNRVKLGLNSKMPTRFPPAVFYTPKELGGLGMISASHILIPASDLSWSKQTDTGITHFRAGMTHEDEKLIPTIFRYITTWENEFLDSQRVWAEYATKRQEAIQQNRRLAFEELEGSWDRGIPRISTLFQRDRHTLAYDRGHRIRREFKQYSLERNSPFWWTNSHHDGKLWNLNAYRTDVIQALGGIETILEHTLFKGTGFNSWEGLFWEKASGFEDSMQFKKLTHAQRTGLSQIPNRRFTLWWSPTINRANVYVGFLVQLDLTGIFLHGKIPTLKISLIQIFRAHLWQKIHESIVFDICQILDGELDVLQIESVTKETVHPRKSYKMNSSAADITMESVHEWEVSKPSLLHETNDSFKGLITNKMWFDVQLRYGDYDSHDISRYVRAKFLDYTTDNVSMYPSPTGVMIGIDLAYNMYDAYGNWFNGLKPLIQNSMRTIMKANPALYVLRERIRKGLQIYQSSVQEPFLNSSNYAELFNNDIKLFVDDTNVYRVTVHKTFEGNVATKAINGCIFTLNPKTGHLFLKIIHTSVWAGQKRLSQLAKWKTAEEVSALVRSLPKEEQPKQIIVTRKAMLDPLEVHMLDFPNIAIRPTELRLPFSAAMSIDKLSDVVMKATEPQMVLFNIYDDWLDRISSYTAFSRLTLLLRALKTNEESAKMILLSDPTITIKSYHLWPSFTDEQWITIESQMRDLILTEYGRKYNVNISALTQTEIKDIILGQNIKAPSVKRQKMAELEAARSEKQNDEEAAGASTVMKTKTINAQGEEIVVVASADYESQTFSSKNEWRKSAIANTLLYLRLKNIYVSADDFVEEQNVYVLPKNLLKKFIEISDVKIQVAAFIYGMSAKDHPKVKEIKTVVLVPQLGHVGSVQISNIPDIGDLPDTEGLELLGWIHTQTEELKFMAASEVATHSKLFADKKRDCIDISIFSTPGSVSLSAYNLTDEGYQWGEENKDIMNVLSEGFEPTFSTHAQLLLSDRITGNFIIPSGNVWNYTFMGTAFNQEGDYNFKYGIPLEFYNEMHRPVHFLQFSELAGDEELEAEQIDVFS

effect of a mutation on the interaction: decreasing interaction strength
Substance: Pre-mRNA-splicing helicase BRR2 (Saccharomyces cerevisiae), P32639 D1247A;D1249A
